Measurements as given in US7005283B2, “Cytochrome P450 oxygenases and their uses” (Washington State University Research Foundation, priority 1999, dated 2006).

B1: clone F12: Taxus cuspidata cytochrome P450 oxygenase, full-length clone, SEQ ID NO: 43 (nt) / 56 (aa) (protein, listed as Taxus cuspidata)
chain: MDTFIQHESSPLLLSLTLAVILGTILLLILSGKQYRSSRKLPPGNMGFPLIGETIALISDTPRKFIDDRVKKFGLVFKTSLIGHPAVVICGSSANRFLLSNEEKLVRMSLPNAVLKLLGQDCVMGKTGVEHGIVRTALARALGPQALQNYVAKMSSEIEHHINQKWKGKDEVKVLPLIRSLVFSISTSLFFGINDEHQQKRLHHLLETVAMGLVSIPLDFPGTRFRKALYARSKLDEIMSSVIERRRSDLRSGAASSDQDLLSVLVTFKDERGNSFADKEILDNFSFLLHALYDTTISPLTLIFKLLSSSPECYENIAQEQLEILGNKKDREEISWKDLKDMKYTWQAVQETLRMFPPVYGYIREALTDIDYDGYTIPKGWRILCSPHTTHSKEEYFDEPEEFRPSRFEDQGRHVAPYTFIPFGGGLRICAGWEFAKMEILLFMHHFVKTFSHFIPVDPNEKISRDPLPPIPVKGFSIKPFPRS
B2: clone F9: Taxus cuspidata cytochrome P450 oxygenase, full-length clone, SEQ ID NO: 48 (nt) / 61 (aa) (protein, listed as Taxus cuspidata)
chain: MDSFNFLRGIGADFGGFIQFQSSPAVLSLSLITTILGVLLLWFFLHKNGSSVTLPPGNLGFPFIGETIPFLRALRSETPQTFFDERVKKFGVVFKTRIVGHPTVVLCGPEGNRFLLSNEDKLVQASLPNSSEKLIGKYSILSKRGEEHRILRAALARFLRPQALQGYVAKMSSEIQHHIKQKWKGNDEVKVLPLIRTLIFNIASSLFFGINDEHQQEQLHHLLEAIVLGSLSVPLDFPGTRFRKALDARSKLDEILSSLMESRRRDLRLGTASENQDLLSVLLTFKDERGNPLTDKEIFDNFSFMLHASYDTTVSPTGLMLKLLFSSPDCYEKLVQEQLGIVGNKKEGEEISWNDLKAMKYTCKVVQESMRMLPPVFGSYRKAXTYIHYDGYTIPKGWNIFWSPYTTHGKEEYFNEADKFMPSRFEEGKYVAPYTFLPFGAGLRVCPGWEFAKTEILLFVHHFITTFSSYIPIDPKDKISGDPFPPLPTNGFSMKLFTRS
modifications: not fully specified; (1)..(500) “Xaa” equals any peptide
B3: clone F51: Taxus cuspidata cytochrome P450 oxygenase, full-length clone, SEQ ID NO: 47 (nt) / 60 (aa) (protein, listed as Taxus cuspidata)
chain: MDTIRASFGEVIQPEYSPLIISXALAAFLGIVIFSIFSSTRRSYVNLPPGNLGLPFIGETIQFLGALQSEKPHTFFDERVKKFGKVFKTSLIGDPTVVLCGPAGNRLVLSNEDKLVQSAGPKSFLKLFGEDSVAAKREESHRILRSALGRFLGPHALQNYIGKMNSEMQRHFDDKWKGKDEVKVLPLVRGLIFSIATSLFFNINDDRQREQLHGLLDTILVGSMTIPLNIPGTLFRKAVKARAKLDEILFALIENRRRELRSGLNSGNQDLLSSLLTFKDEKGNPLTDKEILDNFSVMLHASYDTTVSPTVLILKLLASNPECYEKVVQEQLGILASKKEGEEVNWKDLKAMPYTWQAIQEPLXMPXQLLECFEELSLIFSWKAIQFQKDGQLCGXLIVNGREEFFNEPDKFKPSRFEEGKPLDPYTFIPFGAGVRICAGWEFAKAELLLFVHPFVKNFSGCIIIDPNEKISGDPFPPLPTSGQLMKLIPRS
modifications: not fully specified; (1)..(492) “Xaa” equals any peptide
B4: clone F82: Taxus cuspidata cytochrome P450 oxygenase, full-length clone, SEQ ID NO: 81 (nt) / 87 (aa) (protein, listed as Taxus cuspidata)
chain: MDAFNVLMGPLAKFDNFMQLGSYSENLSVTITVTAIAVITLLLVLIRSKPQSCVNLPPGKLGYPFIGETLQLLQAFRSNRPQQFFDERQKKFGSVFKTSLIGDRTVVLCGPSGNRLLLSNENKLVEASWPSSSIKLIGEDSIAGKNGEKHRILRAAVNRYLGPGALQNYMAKMRSEIEHHMNEKWKGKEQVKVLPLVKENVFSIATSLFFGVNDDGERERLHDLLETALAGVFSIPLDFPGTNYRKALEARLKLDKVLSSLIERRRSDLRSGVASGNEDLLSVWLTFKDEEGNPLTDKEILDNFSTLLHASYDTTTSALTLTLKLMSSSTECYHKVVQEQLRIVSNKKEGEEISLKDLKDMKYTWQVVQETLRMFPPLFGSFRKAITDIHYDGYTIPKGWKVLWTTYSTHGREEYFNEPEKFMPSRFEEEGRHVAPYTFLPFGAGVRTCPGWEFSKTQILLFLHYFVKTFSGYIPLDPDEKVLGNPVPPLPANGFAIKLFPRPSFDQGSPME
B5: clone F72: Taxus cuspidata cytochrome P450 oxygenase, full-length clone, SEQ ID NO: 54 (nt) / 67 (aa) (protein, listed as Taxus cuspidata)
chain: MDVFYPLKSTVAKFNECFPAILFIVLSAVAGIVLPLLLFLRSKRRSSVGLPPGKLGYPFIGESLLFLKALRSNTVEQFLDERVKNFGNVFKTSLIGHPTVVLCGPAGNRLILANEEKLVQMSWPKSSMKLMGEKSITAKRGEGHMIIRSALQGFFSPGALQKYIGQMSKTIENHINEKWKGNDQVSVVALVGDLVFDISACLFFNINEKHERERLFELLEIIAVGVLAVPVDLPGFAYHRALQARSKLNAILSGLIEKRKMDLSSGLATSNQDLLSVFLTFKDDRGNPCSDEEILDNFSGLLHGSYDTTVSAMACVFKLLSSNPECYEKVVQEQLGILSNKLEGDEITWKDVKSMKYTWQVVQETLRLYPSIFGSFRQAITDIHYNGYIIPKGWKLLWTPYTTHPKEMYFSEPEKFLPSRFDQEGKLVAPYTFLPFGGGQRSCPGWEFSKMEILLSVHHFVKTFSTFTPVDPAEIIARDSLCPLPSNGFSVKLFPRSYSLHTGNQVKKI
B6: clone F7: Taxus cuspidata cytochrome P450 oxygenase, full-length clone, SEQ ID NO: 83 (nt) / 89 (aa) (protein, listed as Taxus cuspidata)
chain: MDSFTFVTIKMGKIWQVIQVEYILSLTLTAILLFFFRYRNKSSHKLPPGNLGFPFIGETIQFLRSLRSQTPEFFFDERVKKFGPVFKTSLIGAPTVIFCGAAGSRLVLSNEDKLVQMESPSSLKKLMGENSILYKREEEHRILRSALSRFLGPQALQTYIAKMSTEIERHINEKWKGKEEVKTLPLIRGLVFSIASSLFFDINDEPQQERLHHHLESLVAGSMAVRLDFPGTRFRKAVEARSKLDEALHSLIKSRRSDLLSGKASSNQDLLSVLLSFKDERGNPLRDEEILDNFSLILHASYDTTISPMVLTLKLLSSNPECYDKVVQEQFGILANKKEGEEISWKDLKAMKYTWQVVQETLRMFPPLFGSFRKAMVDINYDGYTIPKGWIVLWTTYSTHVKEEYFNEPGKFRPSRFEHDGRHVAPYTFLPFGGGLRTCPGWEFSKTEILLFIHHFVKTFGSYLPVDPNEKISADPFPPLPANGFSIKLFPRS

Experiment: In vivo assay of yeast cells expressing recombinant oxygenases, radio-HPLC, substrate taxadien-5α-ol
Type: cell-based, Saccharomyces cerevisiae
Conditions: yeast transformants, radio-HPLC and GC-MS
Text: (§1) Transformed yeast cells that fimctionally express a recombinant cytochrome P450 gene from Taxus (by CO-difference spectrum) can be tested in vivo for their ability to oxygenate (hydroxylate or epoxidize) taxoid substrates fed exogenously to the cells, thereby eliminating the need for microsome isolation for preliminary in vitro assays.
(§2) Accordingly, several clones of the available full-length clones were expressed in induced yeast host cells.
(§3) Isolated transformants for each full-length cytochrome P450 clone shown to express a functional enzyme by CO-difference spectrum (ten clones) were grown to stationary phase in 2 mL SGI medium at 30° C. and used to inoculate a 10-mL expression culture (in YPL medium). Approximately 8 hours after induction, cells were harvested by centrifugation (10 minutes at 1500 rpm), and the pellet was resuspended in 2 mL of fresh YPL medium.
(§4) To eliminate additional complication and uncertainty associated with microsome isolations for in vitro assays, 10^6 dpm of [20-^3H3]taxa-4(5),11(12)-diene (16 Ci/mol) or [20-^3H2]taxa-4(20),11(12)-diene-5-α-ol (4.0 Ci/mol), or other taxoid substrate were added directly to the cell suspension to assay conversion in vivo. After 12 hours of incubation at 30° C. with agitation (250 rpm), the mixture was treated for 15 minutes in a sonication bath and extracted 3 times with 2 mL diethyl ether to insure isolation of the biosynthetic products. These ether extracts, containing residual substrate and derived product(s), were concentrated to dryness, resuspended in 200 μL of CH3CN, and filtered. These samples were analyzed by radio-HPLC (Hefner et al., Chemistry and Biology 3:479–489, 1996) using a 4.6 mm i.d.×250 mm column of Econosil C18, 5 μ (Alltech, Deerfield, Ill.) with a gradient of CH3CN in H2O from 0% to 85% (10 minutes at 1 mL/minute), then to 100% CH3CN over 40 minutes.

Row | Molecule | product formed from taxadien-5α-ol
1 | B1 | more polar products
2 | B2 | more polar products
3 | B3 | diol products

Experiment: In vivo assay of yeast cells expressing recombinant oxygenases, radio-HPLC, substrate taxadiene
Type: cell-based, Saccharomyces cerevisiae
Conditions: assayed with Taxadiene; graded symbols, key not given
Text: as §1, §2, §3, §4

Row | Molecule | product identified HPLC peak
4 | B4 | No
5 | B5 | No
6 | B1 | No
7 | B6 | No
8 | B2 | No
9 | B3 | No

Experiment: not given
Type: binding, Saccharomyces cerevisiae
Conditions: not given
Text: CO-sensor of the 19 full-length cytochrome P450 clones from Taxus, thus far obtained, ten have yielded detectable CO-difference spectra (Table 2). […] These alternative expression systems for cytochrome P450 genes include the yeast Pichia pastoris, for which expression vectors and hosts are commercially available (Invitrogen, Carlsbad, Calif.), as well as established E. coli and baculovirus-insect cell systems for which general expression procedures have been described (Barnes, Methods Enzymol. 272:1–14, 1996;Gonzalez et al., Methods Enzymol. 206:93–99, 1991;Lee et al., Methods Enzymol. 272:86–98, 1996;and Lupien et al., Arch. Biochem. Biophys. 368:181–192, 1999).
Appropriate restriction sites were introduced by standard PCR methods (Innis et al., PCR Protocols: A Guide to Methods and Applications, Academic Press, San Diego, Calif., 1990) immediately upstream of the ATG start codon and downstream of the stop codon of all full-length cytochrome P450 clones. These modified amplicons were gel-purified, digested with the corresponding restriction enzymes, and then ligated into the expression vector pYeDP60. The vector/insert junctions were sequenced to ensure that no errors had been introduced by the PCR construction. Verified clones were transformed into yeast using the lithium acetate method (Ito et al., J. Bacteriol. 153:163–168, 1983). Isolated transformants were grown to stationary phase in SGI medium (Pompon et al., Methods Enzymol. 272:51–64, 1996), and used as inocula for a large-scale expression culture grown in YPL medium (Pompon et al., Methods Enzymol. 272:51–64, 1996). Approximately 24 hours after induction of cytochrome P450 expression with galactose (to 10% final concentration), a portion of the yeast cell culture was harvested by centrifugation. One-half of the culture was treated with carbon monoxide, and the cytochrome P450 CO-difference spectrum was recorded directly (using untreated cells as a control) by spectrophotometry (Omura and Sato, J. Biol. Chem. 239:2370–2378, 1964).

Row | Molecule | CO diff. spec.
10 | B4 | −
11 | B5 | +
12 | B1 | +
13 | B6 | −
14 | B2 | +
15 | B3 | +
